Data: paper doi:10.1101/2020.01.09.899237 (bioRxiv, 2020)

B1: DnaJB8 C-terminal domain CTD_(170-232) (domain or fragment, human, UniProt Q8NHS0 170-232, looked up)
chain: GGSSSGSSGFKSVMSSTEMINGHKVTTKRIVENGQERVEVEEDGQLKSVTVNGKEQLKWMDSK
B2: FITC-labelled JD_(1-77) (domain or fragment)
chain: not shown
modifications: FITC-maleimide label (site not stated)
B3: DnaJB8-mClover3 fusion protein (natural protein, human, UniProt Q8NHS0 1-232, looked up)
chain: MANYYEVLGVQASASPEDIKKAYRKLALRWHPDKNPDNKEEAEKKFKLVSEAYEVLSDSKKRSLYDRAGCDSWRAGGGASTPYHSPFDTGYTFRNPEDIFREFFGGLDPFSFEFWDSPFNSDRGGRGHGLRGAFSAGFGEFPAFMEAFSSFNMLGCSGGSHTTFSSTSFGGSSSGSSGFKSVMSSTEMINGHKVTTKRIVENGQERVEVEEDGQLKSVTVNGKEQLKWMDSK
B4: DnaJB8 (recombinant full-length wild type) (natural protein, human, UniProt Q8NHS0 1-232, looked up)
chain: B3 chain

Columns and labels:
[1] = target: B2; assay: MST
[2] = target: B2; assay: fluorescence polarisation
[3] = target: HspA1A (human Hsp70) (human, UniProt P0DMV8 1-641); assay: fluorescence polarisation
[4] = target: the molecule itself; assay: cross-linking
[5] = target: the molecule itself; assay: dynamic light scattering

HspA1A (human Hsp70), sequence (P0DMV8 whole entry): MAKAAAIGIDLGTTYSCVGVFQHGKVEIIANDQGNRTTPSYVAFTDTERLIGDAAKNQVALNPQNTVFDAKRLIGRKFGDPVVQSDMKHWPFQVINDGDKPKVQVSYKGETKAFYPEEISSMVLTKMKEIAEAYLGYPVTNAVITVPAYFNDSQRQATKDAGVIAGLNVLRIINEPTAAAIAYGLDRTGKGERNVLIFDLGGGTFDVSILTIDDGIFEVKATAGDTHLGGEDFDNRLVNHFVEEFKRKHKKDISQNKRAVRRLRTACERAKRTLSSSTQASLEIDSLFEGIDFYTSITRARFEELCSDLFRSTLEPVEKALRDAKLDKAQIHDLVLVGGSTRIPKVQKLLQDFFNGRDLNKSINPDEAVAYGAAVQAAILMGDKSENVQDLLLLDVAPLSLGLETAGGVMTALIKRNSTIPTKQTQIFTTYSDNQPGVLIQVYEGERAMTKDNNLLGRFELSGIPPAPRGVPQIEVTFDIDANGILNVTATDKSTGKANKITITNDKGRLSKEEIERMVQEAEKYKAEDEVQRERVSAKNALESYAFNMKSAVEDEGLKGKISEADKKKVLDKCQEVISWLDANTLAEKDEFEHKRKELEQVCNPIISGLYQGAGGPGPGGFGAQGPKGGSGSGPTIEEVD

Binder: B1
Kd [1]: 5.36 ± 1.15 µM | Kd [2]: 542 ± 71 nM

Binder: B2
Kd [3]: 257 ± 29 nM

Binder: B3
binding result [4]: binds

Binder: B4
binding result [5]: binds
